Source: article PMC6239281, “Same but different: Comparison of two system-specific molecular chaperones for the maturation of formate dehydrogenases” (PLoS ONE, 2018)
Where a chain is given by its changes, count along the chain named. Numbers in names are those of the source.

Legend:
[1] = molecular target: Rhodobacter capsulatus FdsC-C107A (R. capsulatus); test: SEC; size exclusion chromatography of the Ni-NTA purified chaperones alone; data not shown
[2] = molecular target: Rhodobacter capsulatus FdsC-C104A (R. capsulatus); test: as above
[3] = molecular target: Rhodobacter capsulatus FdsC (R. capsulatus); test: as above
[4] = molecular target: Rhodobacter capsulatus FdsC-C104A/C107A (R. capsulatus); test: as above
[5] = molecular target: the molecule itself; test: as above
[6] = molecular target: T1, Escherichia coli L-cysteine desulfurase IscS (E. coli, UniProt P0A6B7 1-404); test: SEC; 20 μM IscS mixed with 40 μM FdhD or FdsC (or double cysteine variant), 30 min at room temperature, Superdex 200 (Increase), 100 mM potassium phosphate pH 8.0 (legend: with 100 mM NaCl, 10 mM β-mercaptoethanol), 280 nm; fractions on 15% SDS-PAGE; conditions: both partners purified
T1 construct: IscS, L-cysteine desulfurase of Escherichia coli; iscS gene cloned into NcoI/BamHI sites of pET15b (pSL209); also called E. coli IscS; source: recombinant (plasmid pSL209), expressed and purified as described previously [33, 46]
T1 sequence (P0A6B7 whole entry): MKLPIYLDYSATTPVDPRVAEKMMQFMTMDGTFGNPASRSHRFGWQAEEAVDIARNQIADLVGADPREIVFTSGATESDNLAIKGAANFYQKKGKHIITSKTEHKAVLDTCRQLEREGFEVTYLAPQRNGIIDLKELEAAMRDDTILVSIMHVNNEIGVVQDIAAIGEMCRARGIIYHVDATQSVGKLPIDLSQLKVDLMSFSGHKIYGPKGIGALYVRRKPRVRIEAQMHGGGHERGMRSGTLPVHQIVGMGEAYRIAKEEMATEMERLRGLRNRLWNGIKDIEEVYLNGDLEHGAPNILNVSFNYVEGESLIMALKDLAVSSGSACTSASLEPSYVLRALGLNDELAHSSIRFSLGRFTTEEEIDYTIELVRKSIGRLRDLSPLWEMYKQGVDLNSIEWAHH

**Q.** With “Rhodobacter capsulatus FdsC-C107A (natural protein)” as the molecule, how does the stoichiometry N [1] read?
**A.** 2

**Q.** “Rhodobacter capsulatus FdsC-C104A (natural protein)” was tested. Which stoichiometry N [2] did it give?
**A.** 2

**Q.** Which stoichiometry N [3] does the source give for “Rhodobacter capsulatus FdsC (natural protein)” here?
**A.** 2

**Q.** Which stoichiometry N [4] does the source give for “Rhodobacter capsulatus FdsC-C104A/C107A (natural protein)” here?
**A.** 2

B1: Escherichia coli FdhD (natural protein, E. coli)
chain: MKKTQRKEIENVTNITGVRQIELWRRDDLQHPRLDEVAEEVPVALVYNGISHVVMMASPKDLEYFALGFSLSEGIIESPRDIFGMDVVPSCNGLEVQIELSSRRFMGLKERRRALAGRTGCGVCGVEQLNDIGKPVQPLPFTQTFDLNKLDDALRHLNDFQPVGQLTGCTHAAAWMLPSGELVGGHEDVGRHVALDKLLGRRSQEGESWQQGAVLVSSRASYEMVQKSAMCGVEILFAVSAATTLAVEVAERCNLTLVGFCKPGRATVYTHPQRLSN
notes: FdhD, FDH-specific chaperone of Escherichia coli; fdhD gene in pTrcHis (pNB10); His6-tagged FdhD has a molecular mass of 32.7 kDa; also called FdhD wild-type; FdhD WT; source: E. coli ΔfdhD strain (plasmid pNB10), purified (Ni-NTA)
**Q.** For B1, which “stoichiometry N” value [5] is on record?
**A.** 2

**Q.** Does B1 bind [6]?
**A.** binds

B2: Escherichia coli FdhD-C121A (natural protein, E. coli)
chain: B1 chain with C121A
notes: FdhD of Escherichia coli with C121A; fdhD^C121A gene in pTrcHis (pNB11); Made from pNB10 by site-directed mutagenesis; also called His6-FdhD^C121A; source: E. coli ΔfdhD strain (plasmid pNB11), purified (Ni-NTA)
**Q.** How did the “stoichiometry N” value [5] turn out when B2 was run?
**A.** 2

B3: Escherichia coli FdhD-C124A (natural protein, E. coli)
chain: B1 chain with C124A
notes: FdhD of Escherichia coli with C124A; fdhD^C124A gene in pTrcHis (pNB12); Made from pNB10 by site-directed mutagenesis; also called His6-FdhD^C124A; source: E. coli ΔfdhD strain (plasmid pNB12), purified (Ni-NTA)
**Q.** Which “stoichiometry N” value [5] does the source give for B3 here?
**A.** 2

B4: Escherichia coli FdhD-C121A/C124A (natural protein, E. coli)
chain: B1 chain with C121A, C124A
notes: FdhD of Escherichia coli with C121A and C124A; fdhD^C121A/C124A gene in pTrcHis (pNB13); Made from pNB10 by site-directed mutagenesis; also called FdhD-C121/C124A; double variant; source: E. coli ΔfdhD strain (plasmid pNB13), purified (Ni-NTA)
**Q.** B4 was tested. Which “stoichiometry N” value [5] did it give?
**A.** 2

**Q.** Does B4 bind [6]?
**A.** binds
